# Laboratory results from article PMC10772735, “Characterization of erythroferrone oligomerization and its impact on BMP antagonism” (The Journal of Biological Chemistry, 2023).
# Several values for one entry are separate records, joined by “and”; a condition that tells them apart may be missing. Identical values can stand only once. Like-named read-outs stand apart in the source and are kept apart here.
# T1: BMP6 (UniProt P22004 375-513)
# T1 sequence (looked up): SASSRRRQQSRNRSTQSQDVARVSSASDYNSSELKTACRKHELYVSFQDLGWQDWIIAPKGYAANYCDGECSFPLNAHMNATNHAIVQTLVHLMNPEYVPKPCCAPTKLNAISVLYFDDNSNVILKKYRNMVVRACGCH
# T2: BMP6, P22004
# T2 chain: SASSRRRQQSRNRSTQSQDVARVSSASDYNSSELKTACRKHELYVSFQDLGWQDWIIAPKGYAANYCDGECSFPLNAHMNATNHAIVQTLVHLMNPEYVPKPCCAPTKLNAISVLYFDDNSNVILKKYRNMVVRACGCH
# T3: BMP7 (UniProt P18075 293-431)
# T3 sequence (looked up): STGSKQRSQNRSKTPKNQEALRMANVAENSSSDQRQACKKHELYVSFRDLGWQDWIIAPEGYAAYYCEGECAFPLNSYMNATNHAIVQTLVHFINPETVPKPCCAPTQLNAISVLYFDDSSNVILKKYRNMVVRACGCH
# T4: GDF5 (UniProt P43026 382-501)
# T4 sequence (looked up): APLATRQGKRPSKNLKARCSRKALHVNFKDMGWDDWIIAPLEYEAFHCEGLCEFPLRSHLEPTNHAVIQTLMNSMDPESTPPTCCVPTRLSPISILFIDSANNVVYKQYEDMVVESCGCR
# Tests used:
# [1] = biological target: Alk3-Fc ECD (Homo sapiens) (UniProt P36894); conditions: cited from earlier work
# BMP6 [2] = biological target: BMP6 (UniProt P22004); assay: SPR competition (BMP6 + ERFE over Alk3-Fc captured on protein A chip); conditions: curve maximum near the ~300 s dotted line, RU is residual BMP6 binding to Alk3-Fc (lower RU = more competition by ERFE) …, read off a plot
# BMP6 [3] = biological target: T1, BMP6; assay: cell-based or functional assay
# [4] = biological target: the molecule itself; assay: AUC; sedimentation velocity, ΔC1Q ERFE mutants, 0.5 mg/ml, 40,000 RPM, 20 °C, absorbance at 230 nm, never frozen protein after dialysis; oligomeric states assigned qualitatively from approximate masses
# [5] = biological target: the molecule itself; assay: non-reducing SDS-PAGE; purified ERFE analysed by SDS-PAGE under reducing and nonreducing conditions; shows only disulfide-linked species
# BMP6, P22004 = biological target: T2, BMP6, P22004; assay: SPR competition (BMP6 + ERFE over Alk3-Fc captured on protein A chip); conditions: chain shown with the change, curve maximum near the ~300 s dotted line, read off a plot
# [6] = biological target: the molecule itself; assay: AUC; sedimentation velocity, full-length ERFE constructs, 0.5 mg/ml, 20,000 rpm, 20 °C, absorbance at 230 nm, freshly purified never frozen protein after dialysis (20 mM Hepes pH 7.5, 150 mM NaCl, 5 mM CaCl2); oligomeric states assigned qualitatively from approximate masses
# BMP6 [7] = biological target: T1, BMP6; assay: cell-based or functional assay; remark: listed apart in the source
# BMP2 = BMP2 (UniProt P12643 283-396); assay: cell-based or functional assay
# BMP7 = biological target: T3, BMP7; assay: cell-based or functional assay
# GDF5 = biological target: T4, GDF5; assay: cell-based or functional assay
# BMP6 [8] = biological target: T1, BMP6; assay: cell-based or functional assay; remark: listed apart in the source
# Sequence of BMP2 (P12643 283-396): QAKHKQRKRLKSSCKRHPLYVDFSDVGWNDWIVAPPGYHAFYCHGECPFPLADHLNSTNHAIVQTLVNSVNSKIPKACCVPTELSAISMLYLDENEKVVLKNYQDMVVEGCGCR
# Sequence of Alk3-Fc ECD (Homo sapiens) (P36894 24-152): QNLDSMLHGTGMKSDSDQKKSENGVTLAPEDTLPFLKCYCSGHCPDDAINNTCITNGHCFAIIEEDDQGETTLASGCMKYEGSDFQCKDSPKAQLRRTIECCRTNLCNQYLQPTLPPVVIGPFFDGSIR
molecule,measurement,setting,value
BMP6 (from UniProt P22004),Kd,[1],62.5 nM
ΔC1Q ERFE (from UniProt Q4G0M1) CLR* (center PGP in the CLR to SSS); C155S; C157S,response,BMP6 [2]; 10 nM BMP6 + 80 nM CLR*Cys*ΔC1Q ERFE,19 RU
same,response,BMP6 [2]; 10 nM BMP6 + 160 nM CLR*Cys*ΔC1Q ERFE,17 RU
"Cys∗ΔC1Q ERFE (domain or fragment, human, UniProt Q4G0M1 44-207, looked up, erythroferrone (ERFE), human, stop codon at C208, Cys155 and Cys157 mutated to serines (C208 is not in the truncated chain); source: Expi293, transfected, purified; not shown: FLAG, N-terminal, kept) PPPGNELPRGPGESRAGPAARPPEPTAERAHSVDPRDAWMLFVRQSDKGVNGKKRSRGKAKKLKFGLPGPPGPPGPQGPPGPIIPPEALLKEFQLLLKGAVRQRERAEPEPSTSGPAGPVAASLAPVSATAGEDDDDVVGDVLALLAAPLAPGPRAPRVEAAFL","IC50 of inhibition of 2.5 nM BMP6 signalling, luciferase reporter, BRITER cells",BMP6 [3],97 nM
same,stoichiometry N,[4],3
CLR∗Cys∗ΔC1Q ERFE (domain or fragment) PPPGNELPRGPGESRAGPAARPPEPTAERAHSVDPRDAWMLFVRQSDKGVNGKKRSRGKAKKLKFGLPGPPGPSSSQGPPGPIIPPEALLKEFQLLLKGAVRQRERAEPEPSTSGPAGPVAASLAPVSATAGEDDDDVVGDVLALLAAPLAPGPRAPRVEAAFL,"IC50 of inhibition of 2.5 nM BMP6 signalling, luciferase reporter, BRITER cells",BMP6 [3],290 nM
CLR∗ΔC1Q ERFE (domain or fragment) PPPGNELPRGPGESRAGPAARPPEPTAERAHSVDPRDAWMLFVRQSDKGVNGKKRSRGKAKKLKFGLPGPPGPSSSQGPPGPIIPPEALLKEFQLLLKGAVRQRERAEPEPCTCGPAGPVAASLAPVSATAGEDDDDVVGDVLALLAAPLAPGPRAPRVEAAFL,"IC50 of inhibition of 2.5 nM BMP6 signalling, luciferase reporter, BRITER cells",BMP6 [3],27 nM
same,stoichiometry N,[4],2
"ΔC1Q ERFE (domain or fragment, human, UniProt Q4G0M1 44-207, looked up, erythroferrone (ERFE), human, construct from residue 44 with a stop codon introduced at C208, removing the entire C1Q domain; source: Expi293, transfected, purified; not shown: FLAG, N-terminal, kept) PPPGNELPRGPGESRAGPAARPPEPTAERAHSVDPRDAWMLFVRQSDKGVNGKKRSRGKAKKLKFGLPGPPGPPGPQGPPGPIIPPEALLKEFQLLLKGAVRQRERAEPEPCTCGPAGPVAASLAPVSATAGEDDDDVVGDVLALLAAPLAPGPRAPRVEAAFL","IC50 of inhibition of 2.5 nM BMP6 signalling, luciferase reporter, BRITER cells",BMP6 [3],7.8 nM
same,stoichiometry N,[5],2
same,stoichiometry N,[4],3
"N-terminally flag-tagged hERFE (residues 44–354), WT erythroferrone, Q4G0M1 CLR* (center PGP in the CLR to SSS); C155S; C157S; C208S (protein) PPPGNELPRGPGESRAGPAARPPEPTAERAHSVDPRDAWMLFVRQSDKGVNGKKRSRGKAKKLKFGLPGPPGPSSSQGPPGPIIPPEALLKEFQLLLKGAVRQRERAEPEPSTSGPAGPVAASLAPVSATAGEDDDDVVGDVLALLAAPLAPGPRAPRVEAAFLSRLRRDALVERRALHELGVYYLPDAEGAFRRGPGLNLTSGQYRAPVAGFYALAATLHVALGEPPRRGPPRPRDHLRLLICIQSRCQRNASLEAIMGLESSSELFTISVNGVLYLQMGQWTSVFLDNASGCSLTVRSGSHFSAVLLGV",response,"BMP6, P22004; 10 nM BMP6 + 5 nM CLR*Cys* ERFE, RU is residual BMP6 binding to Alk3-Fc (lower RU = more competition by ERFE), BMP6 …",11 RU
same,response,"BMP6, P22004; 10 nM BMP6 + 10 nM CLR*Cys* ERFE, RU is residual BMP6 binding to Alk3-Fc (lower RU = more competition by ERFE), BMP6 …",8.7 RU
same,response,"BMP6, P22004; 10 nM BMP6 + 20 nM CLR*Cys* ERFE, RU is residual BMP6 binding to Alk3-Fc (lower RU = more competition by ERFE), BMP6 …",6.2 RU
same,response,"BMP6, P22004; 10 nM BMP6 + 40 nM CLR*Cys* ERFE, RU is residual BMP6 binding to Alk3-Fc (lower RU = more competition by ERFE), BMP6 …",4 RU
same,response,"BMP6, P22004; 10 nM BMP6 + 80 nM CLR*Cys* ERFE, RU is residual BMP6 binding to Alk3-Fc (lower RU = more competition by ERFE), BMP6 …",2.3 RU
same,response,"BMP6, P22004; 10 nM BMP6 + 160 nM CLR*Cys* ERFE, RU is residual BMP6 binding to Alk3-Fc (lower RU = more competition by ERFE) …",1.2 RU
"Cys∗ ERFE (natural protein, human, UniProt Q4G0M1 44-354, looked up, erythroferrone (ERFE), human, residues 44-354, Cys155, 157 and 208 mutated to serines; source: some mutants αFlag resin first; not shown: FLAG, N-terminal, kept) PPPGNELPRGPGESRAGPAARPPEPTAERAHSVDPRDAWMLFVRQSDKGVNGKKRSRGKAKKLKFGLPGPPGPPGPQGPPGPIIPPEALLKEFQLLLKGAVRQRERAEPEPSTSGPAGPVAASLAPVSATAGEDDDDVVGDVLALLAAPLAPGPRAPRVEAAFLSRLRRDALVERRALHELGVYYLPDAEGAFRRGPGLNLTSGQYRAPVAGFYALAATLHVALGEPPRRGPPRPRDHLRLLICIQSRCQRNASLEAIMGLESSSELFTISVNGVLYLQMGQWTSVFLDNASGCSLTVRSGSHFSAVLLGV","IC50 of inhibition of 2.5 nM BMP6 signalling, luciferase reporter, BRITER cells",BMP6 [3],8.7 nM
same,stoichiometry N,[6],3
"N-terminally flag-tagged hERFE (residues 44–354), WT erythroferrone (natural protein, human, UniProt Q4G0M1 44-354, looked up, erythroferrone (ERFE, FAM132B), human, residues 44-354; By AUC a mixture of trimer, hexamer and a little high molecular weight species; also called WT ERFE; N-Flag ERFE; not shown: FLAG, N-terminal, kept) PPPGNELPRGPGESRAGPAARPPEPTAERAHSVDPRDAWMLFVRQSDKGVNGKKRSRGKAKKLKFGLPGPPGPPGPQGPPGPIIPPEALLKEFQLLLKGAVRQRERAEPEPCTCGPAGPVAASLAPVSATAGEDDDDVVGDVLALLAAPLAPGPRAPRVEAAFLCRLRRDALVERRALHELGVYYLPDAEGAFRRGPGLNLTSGQYRAPVAGFYALAATLHVALGEPPRRGPPRPRDHLRLLICIQSRCQRNASLEAIMGLESSSELFTISVNGVLYLQMGQWTSVFLDNASGCSLTVRSGSHFSAVLLGV","IC50 of ERFE inhibition of BMP6 (2.5 nM) signalling, BMP responsive luciferase assay (BRE promoter)",BMP6 [7],5.2 nM
same,"IC50 of ERFE inhibition of BMP2 (2.5 nM) signalling, BMP responsive luciferase assay (BRE promoter)",BMP2,170 nM
same,"IC50 of ERFE inhibition of BMP7 (2.5 nM) signalling, BMP responsive luciferase assay (BRE promoter)",BMP7,8.9 nM
same,"IC50 of ERFE inhibition of GDF5 (2.5 nM) signalling, BMP responsive luciferase assay (BRE promoter)",GDF5,130 nM
same,stoichiometry N,[5],2
same,stoichiometry N,[6],3 and 6
"D90A ERFE (natural protein, human, UniProt Q4G0M1 44-354, looked up) PPPGNELPRGPGESRAGPAARPPEPTAERAHSVDPRDAWMLFVRQSAKGVNGKKRSRGKAKKLKFGLPGPPGPPGPQGPPGPIIPPEALLKEFQLLLKGAVRQRERAEPEPCTCGPAGPVAASLAPVSATAGEDDDDVVGDVLALLAAPLAPGPRAPRVEAAFLCRLRRDALVERRALHELGVYYLPDAEGAFRRGPGLNLTSGQYRAPVAGFYALAATLHVALGEPPRRGPPRPRDHLRLLICIQSRCQRNASLEAIMGLESSSELFTISVNGVLYLQMGQWTSVFLDNASGCSLTVRSGSHFSAVLLGV","IC50 of inhibition of 2.5 nM BMP6 signalling, luciferase reporter, BRITER cells",BMP6 [8],13 nM
"N94A ERFE (natural protein, human, UniProt Q4G0M1 44-354, looked up) PPPGNELPRGPGESRAGPAARPPEPTAERAHSVDPRDAWMLFVRQSDKGVAGKKRSRGKAKKLKFGLPGPPGPPGPQGPPGPIIPPEALLKEFQLLLKGAVRQRERAEPEPCTCGPAGPVAASLAPVSATAGEDDDDVVGDVLALLAAPLAPGPRAPRVEAAFLCRLRRDALVERRALHELGVYYLPDAEGAFRRGPGLNLTSGQYRAPVAGFYALAATLHVALGEPPRRGPPRPRDHLRLLICIQSRCQRNASLEAIMGLESSSELFTISVNGVLYLQMGQWTSVFLDNASGCSLTVRSGSHFSAVLLGV","IC50 of inhibition of 2.5 nM BMP6 signalling, luciferase reporter, BRITER cells",BMP6 [8],21 nM
